Assay results published in the DeepSol protein solubility set.

Assay: soluble on expression in E. coli; label from the status in PepcDB or PDB records

Sequence	soluble on expression in E. coli
MTENERAHADHASASPQRTRRRRGKPRRRMDSGASTQGGGASKSAAPSSSTSGSRGERGSRGDDKDKQNKHTRRKRRPAHRSTQRGSHGGDSSNSGSGIKRRRHTGNKNRGNQSRRQNNRSSRITTRDETSAGGLVISGLAEAVDENNNVDLSRIYVALIGRL	not soluble
MTENKGIMLAKSVQKHAGRAKEKILQNLGKVDRTADEIFDDHLNNFNRQQASANRLQKEFNNYIRCVRAAQAASKTLMDSVCEIYEPQWSGYDALQAQTGASESLWADFAHKLGDQVLIPLNTYTGQFPEMKKKVEKRNRKLIDYDGQRHSFQNLQANANKRKDDVKLTKGREQLEEARRTYEILNTELHDELPALYDSRILFLVTNLQTLFATEQVFHNETAKIYSELEAIVDKLATESQRGS	soluble
MTEPKEERRERRMSSPIMPENMSDFDLIVGEIEAENGAEGSFQRAAECFKLIEDRVSEDPDLSEIMENIRMNQGCEVSGMSTGLSSTATTVSSKMASQWISHMKRSFKRRAICLSEEQQSAMRKMVTEELYTQHGPADLAVRDILLLYSRGLEAHHDGRYREMFERLRPCIPYFNTNVLVWIRISEALIYEYYEETWEFNDIYDRLFEKQPHHYMPSVRRRCNEMRPRHPDMTLRFAETATLMCFALAKQSSREPVHYAAAALHGFMLLKLRKYSEAIEAVNFAVERYDRAGEWQDDLAILLTYKAEGMIGIGRYNRAIEYALRVMNAAKCARARQRATMLVVMAYMRKRNYLKAHEYVIKLLKEGKLDEVMLENVALLGLNLAHLMGNMKLFKRFESMLQRIVY	not soluble
MTEQMWIEKLGLEAHPEGGYFKQTNKSEQLIPTKRGERALHTAILFLLNTESPSHFHRLKADELWFFHDGQPLTVHCIFPDGTYQAVQLGKDLVQGQQLSFSVPAGTIFGSTVATGFALVSCVVTPGFEFEDFELFTQAELLNDYPQHSEIIQHLAYRELPLEHHHHHH	soluble
MTEQVLFSVSENGVATITLNRPKALNSLSYDMLQPIGQKLKEWEHDERIALIVLKGAGTKGFCAGGDIKTLYEARSNEVALQHAERFFEEEYEIDTYIYQYTKPIIACLDGIVMGGGVGLTNGAKYRIVTERTKWAMPEMNIGFFPDVGAAYFLNKAPGYTGRFVALTASILKASDVLFINAADYFMTSDSLPEFLTELESVNWHKEDDVHTNLKEVIRTFATAPNLESELAPSLEVINSHFAFDTIEEIIHSLEKDESSFALKTKEILLSKSPISLKVTLKQFIDGQDKSVEECFATDLILAKNFMRHEDFFEGVRSVVVDKDQNPNYKYKQLSDVSEEDVNRFFNLLNA	not soluble
MTESKTAIIFDMDGVLVDSEAYYYERRKAFLAEFDLTIEGLTLPELVGADMRSLWQKIEQVNKKELDIAFLNEQYIAYKKAHPIDYLAVLDENAKRVLQFLKRQGYKIGLASSSTKDAIEEVLTVGQLSSYFDAVVSGEDFEESKPAPDIYLHTLQELAVAPQECIAIEDSEKGIASAKEAGLEVWAMRDEHFGMDQSQADAFLTQLSDICKKISENRIDESSESTPS	not soluble
MTEVRRRGRPGQAEPTAQKGAQALERGIAILQYLERSGGSSSVSDISGSLDLPLSTTFRLLKVLQAADFVYQDSQLGWWHIGLGVFNVGSAYIHNRDVLSVAGPFMHRLMLLSGETVNVAIRNGNEAVLIGQKECKSMVRMCAPLGSRLPLHASGAGKALLYPLTEEELVGIVVNTGLRRFTPTTLVDLPILLKNLEQAREQGYTVDQEEHVVGLNCIASAIYDDAGSVVAAISISGPASRLTEDRFISQGELVRDTAKDISTALGLKPPVA	not soluble
MTEVRRRGRPGQAEPVAQKGAQALERGIAILQYLEKSGGSSSVSDISLNLDLPLSTTFRLLKVLQAADFVYQDSQLGWWHIGLGVFNVGAAYIHNRDVLSVAGPFMRRLMLLSGETVNVAIRNGNEAVLIGQLECKSMVRMCAPLGSRLPLHASGAGKALLYPLAEEELMSIILQTGLQQFTPTTLVDMPTLLKDLEQARELGYTVDKEEHVVGLNCIASAIYDDVGSVVAAISISGPSSRLTEDRFVSQGELVRDTARDISTALGLKAHP	soluble
MTGDKEIITMTFKIWQIGLHLQQQEAAAVAIVRGAKECFLQRWWRLPLAHDIIKDGRIVDAQQLAKTLLPWSRELPQRHHIMLAFPASRTLQRSFPRPSMSLGEREQTAWLSGTMARELDMDPDSLRFDYSEDSLSPAYNVTAAQSKELATLLTLAERLRVHVSAITPDASALQRFLPFLPSHQQCLAWRDNEQWLWATRYSWGRKLAVGMTSAKELAAALSVDPDSVAICGEGGFDPWEAVSVRQPPLPPPGGDFAIALGLALGKAY	not soluble
MTGEKLLYIETFGCQMNVSDSEKVASLLRGEGYSQTPDSSEADLIIVNTCSVRAKAEHKVYSYLGRFRKLKRDRRLLLGVGGCVAQQEGERLLKRVPWLDLVFGTHNLHLLPEMVRAAEQGERRAAVDFIDNEARLDLFPQADEGGGVTRFVTVMQGCDNFCSYCIVPYVRGREISRRSVEIIGEIRSAVAGGVREVTLLGQNVNSYGLKTPGELSFAGLLREISAIDGLERIRFTTSHPKDISPELIACFAELPKLCGHIHLPAQAGSDSILARMNRGYTRQEYLEKVAALRAARPEILITGDIIVGFPGETEADFLQTLSLMEEVRYTDIFSFAYSPRPETAAASLGDRIMRKETTERLERVQGLQRDMTIERHAGFVGTCQAVLVEGMSKRGDQLYGRTDGNLIVNFAGNPSLAGSLVDVRITRGYPNSLLGELAVFQ	soluble
MTHALLIGNPNCGKTTLFNALTNANQRVGNWPGVTVEKKTGEFLLGEHLIEITDLPGVYSLVANAEGISQDEQIAAQSVIDLEYDCIINVIDACHLERHLYLTSQLFELGKPVVVALNMMDIAEHRGISIDTEKLESLLGCSVIPIQAHKNIGIPALQQSLLHCSQKIKPLKLSLSVAAQQILNDLENQLISKGYKNSFAYYFSRRLAEGDTLIGEKAFTESLLIKLQETEQNLDVLLADARYQKIHEIVTLVQKK	soluble
MTHIYEPRLSRIAIDKLRPTQIAVGFREVELKRKEWRETRKKDGDDFLGNHIVPVVAGPKDRAYLIDHHHLVLALSKEGVEHVLTSEVAKFSHLGKDEFWSVMDHRNLIYPFDAQGLRRQSGDIPKNIHDLEDDPFRSLAGALRMAGGYAKVIIPFSEFGWADFLRRRIDRDLLSDSFDDALAEAMKLAKSREARHLPGWCGVEEAAALEHHHHHH	soluble
MTHNQSTALLTDMYELTMLQSALADGTAERQCTFEVFGRRLPNERRYGVVAGTPRVLEAVQNFRFTEAQLASLTFLNDTTLEYLRNYRFAGHIDGYREGELYFPHSPILTVRGTFAECVILETVILSIMNADSAVATAAARMVTAADGRTIIEMGSRRTHEYAAVTATRAAYLAGFSATSNLEAVHRYGIPGSGTAAHAWTLLHVNEDGTPNEKSAFESQVRAQGTGTTLLIDTYDIAQGVRNAIEVAGPELGAVRIDSGDLGVMTRKIRQELDNLGAHNTQIVVSSDLDEYAIAGLRGNPVDVFGVGTSVVTGSGAPTAGMVYKLVEVDGNPVSKRSRGKGMLGGAKRAARTHRASGTAVEELVFPYEHPVPQVGTLTSVELTIPLMRDGVVVEGLPTLEESRAYLAQQLVTIPWEGLALSRDEPVLATRHVGFDQLEHHHHHH	soluble
MTHQIVTTQYGKVKGTTENGVHKWKGIPYAKPPVGQWRFKAPEPPEVWEDVLDATAYGPICPQPSDLLSLSYTELPRQSEDCLYVNVFAPDTPSQNLPVMVWIHGGAFYLGAGSEPLYDGSKLAAQGEVIVVTLNYRLGPFGFLHLSSFDEAYSDNLGLLDQAAALKWVRENISAFGGDPDNVTVFGESAGGMSIAALLAMPAAKGLFQKAIMESGASRTMTKEQAASTAAAFLQVLGINESQLDRLHTVAAEDLLKAADQLRIAEKENIFQLFFQPALDPKTLPEEPEKSIAEGAASGIPLLIGTTRDEGYLFFTPDSDVHSQETLDAALEYLLGKPLAEKAADLYPRSLESQIHMMTDLLFWRPAVAYASAQSHYAPVWMYRFDWHPEKPPYNKAFHALELPFVFGNLDGLERMAKAEITDEVKQLSHTIQSAWITFAKTGNPSTEAVNWPAYHEETRETVILDSEITIENDPESEKRQKLFPSKGE	soluble
MTHRTKTRPVKVGNLTIGGNNELIIQSMTTTKTHDVEATVAEIKRLEEAGCQVVRVAVPDERAANAIADIKKQINIPLVADIHFDYRLALKAIEGGIDKVRINPGNIGRRHKVEAVVNAAKERGIPIRIGVNAGSLERHILEKYGYPTADGMVESALHHIKILEDLDFHDIIVSMKASDVNLAIEAYEKAARAFDYPLHLGITESGTLFAGTVKSAAGLGAILNKGIGNTLRISLSADPVEEVKVARELLKSFGLASNAATLISCPTCGRIEIDLISIANEVEEYISTLQVPIKVAVLGCAVNGPGEAREADIGIAGARGEGLLFRKGQVVRKVPEEIMVEELKKEIDVIAAEMAAEREKEKETQEQ	not soluble
MTIAQQERPVAASPYRFEAEMTSGLERVAAHHHDLTLTSVFQPIFSLSHMRAVGYEALLRAHDALDRPVSPLDVFGEAARHGEAAQVDRLAQALHLENFARFGAEREWLFLNVHPGVLTDPFQAAALFANLKRLEIPPRRIVLEVLEQRADDIERLADAVREFREQGFLIALDDFGAGHSNIERIWQLNPDIVKLDRIMLSHAQHRAGLTAILHGLVTLLHEAGKLVLIEGIETEHEAQIALACDADFVQGHFFGRPAPGLPDGAAASACIGELTERYRQQAEASERRDAQRLAPYQRAFERAAERLAAGEPLDEVCWNFLALDHAARCFLLDERGRQAGRNVVRRADRARHETRFLPLADAQGANWLRRPYFRSAIAAPGRVQATRPYLSINEALPCVTLSIAVRVHDALCVLCGDIDWIDDEASMSA	soluble
MTISVEKPIFEEEVSAFEKSGDNIGELKLDGGFSMPKMDTNDDEAFLAPEMNAFGRQFRDYDVESERQKGVEEFYRLQHINQTVDFVKKMRAEYGKLDKMVMSIWECCELLNEVVDESDPDLDEPQIQHLLQSAEAIRKDYPNEDWLHLTALIHDLGKVITLPQFGGLPQWAVVGDTFPVGCAFDESNVHHKYFVENPDFHNETYNTKNGIYSEGCGLNNVMMSWGHDDYMYLVAKENGSTLPSAGQFIIRYHSFYPLHTAGEYTHLMNEEDKENLKWLHVFNKYDLYSKSKVHVDVEKVKPYYMSLIKKYFPENLRW	soluble
MTITALTVTLPLLWRRLTTAGVKYADQGHFVGSAGVPAADAGGRDAASEQIARWTQTCTVVLVCGHGPAKWAFRSWCTSRSCDTLPVALRYRLQSNPLVGKLTTKYFLPLGTRQVGDHVVFFNFGYEEDPPMALPLSESDEPNRYCIQLYHQTASQVDLTGKEVLEVSCGAGGGASYIARNLGPASYTGLDLNPASIDLCRAKHRLPGLQFVQGDAQNLPFPDESFDAVVNVEASHQYPDFRGFLAEVARVLRPGGHFLYTDSRRNPVVAEWEAALADAPLRTISQRDIGAQAKRGLDANTARSQEAIGRRAPVLLAGLTRCAVRVLDWDLRRGGGFSYRIYLFAKD	not soluble
MTIYTCTLNLAIDLFIETEELVPFVVNRTKEDDIQANGKGVNVSLILKMLGIDNTALGVKAGFTGNYVEDYLKEKEITTDFIEVAGTTRINVFTKVTQDQKEYKLVNKGPKLSEEHVQRFLKKISELRKGDYLCVSGSLPQGVSPSILIEISRICFEKQVFLILDSSYEEILDCLPYQPFLLKPNEEELQEWFHTEVQTKDDYIFYGQELLKRGAKNILLSLGSEGALFMNNEKVLSGNSPTGMVVNTACSGDAMLGTFLAGWHQGLSLEKNLKRSIAAGSSTAFRKGLTDFSDVQELEQQIKIQEEE	not soluble
MTIYTLSHGSLKLDVSDQGGVIEGFWRDTTPLLRPGKKSGVATDASCFPLVPFANRVSGNRFVWQGREYQLQPNVEWDAHYLHGDGWLGEWQCVSHSDDSLCLVYEHRSGVYHYRVSQAFHLTADTLTVTLSVTNQGAETLPFGTGWHPYFPLSPQTRIQAQASGYWLEREQWLAGEFCEQLPQELDFNQPAPLPRQWVNNGFAGWNGQARIEQPQEGYAIIMETTPPAPCYFIFVSDPAFDKGYAFDFFCLEPMSHAPDDHHRPEGGDLIALAPGESTTSEMSLRVEWLLEHHHHHH	soluble
